# Data: US20100158968A1 (PURDUE RESEARCH FOUNDATION, published 2010)
# Non-standard residues stand in square brackets, D forms with d. No end group written: not given here.
# B1: YARAAARQARALNRQLGVAA (peptide)
# peptide: YARAAARQARALNRQLGVAA
# B2: KALNRdQLGVAA (peptide)
# peptide: KALNR[dQ]LGVAA-NH2
# modifications: N-terminus assumed
# SMILES: CC(C)C[C@H](NC(=O)[C@H](C)NC(=O)[C@@H](N)CCCCN)C(=O)N[C@@H](CC(N)=O)C(=O)N[C@@H](CCCNC(=N)N)C(=O)N[C@H](CCC(N)=O)C(=O)N[C@@H](CC(C)C)C(=O)NCC(=O)N[C@H](C(=O)N[C@@H](C)C(=O)N[C@@H](C)C(N)=O)C(C)C
# B3: KKKALNRQLGVAA (peptide)
# peptide: KKKALNRQLGVAA
# B4: KALNRQLGAAA (peptide)
# peptide: KALNRQLGAAA
# B5: KALNRQLGdVAA (peptide)
# peptide: KALNRQLG[dV]AA-NH2
# modifications: N-terminus assumed
# SMILES: CC(C)C[C@H](NC(=O)[C@H](C)NC(=O)[C@@H](N)CCCCN)C(=O)N[C@@H](CC(N)=O)C(=O)N[C@@H](CCCNC(=N)N)C(=O)N[C@@H](CCC(N)=O)C(=O)N[C@@H](CC(C)C)C(=O)NCC(=O)N[C@@H](C(=O)N[C@@H](C)C(=O)N[C@@H](C)C(N)=O)C(C)C
# B6: KAFAKLAARLYRLARQLGVAA (peptide)
# peptide: KAFAKLAARLYRLARQLGVAA
# B7: KALNRQLGVA (peptide)
# peptide: KALNRQLGVA
# B8: YGRKKRRQRRR (peptide)
# peptide: YGRKKRRQRRR
# B9: KALARQLGVAA (peptide)
# peptide: KALARQLGVAA
# B10: KAANRQLGVAA (peptide)
# peptide: KAANRQLGVAA
# B11: WLRRIKAWLRRIKALNRQLGV (peptide)
# peptide: WLRRIKAWLRRIKALNRQLGV
# B12: KALNRQAGVAA (peptide)
# peptide: KALNRQAGVAA
# B13: KALNRQdLGVAA (peptide)
# peptide: KALNRQ[dL]GVAA-NH2
# modifications: N-terminus assumed
# SMILES: CC(C)C[C@H](NC(=O)[C@H](C)NC(=O)[C@@H](N)CCCCN)C(=O)N[C@@H](CC(N)=O)C(=O)N[C@@H](CCCNC(=N)N)C(=O)N[C@@H](CCC(N)=O)C(=O)N[C@H](CC(C)C)C(=O)NCC(=O)N[C@H](C(=O)N[C@@H](C)C(=O)N[C@@H](C)C(N)=O)C(C)C
# B14: FAKLAARLYRLARQLGVAA (peptide)
# peptide: FAKLAARLYRLARQLGVAA
# B15: WLRRIKAWLRRIKA (peptide)
# peptide: WLRRIKAWLRRIKA
# B16: WLRRIKAWLRRIKALNRQLGVAA (peptide)
# peptide: WLRRIKAWLRRIKALNRQLGVAA
# B17: KALNAQLGVAA (peptide)
# peptide: KALNAQLGVAA
# B18: KALNRQLAVAA (peptide)
# peptide: KALNRQLAVAA
# B19: YARAAARQARALARQLGVAA (peptide)
# peptide: YARAAARQARALARQLGVAA
# B20: KAdLNRQLGVAA (peptide)
# peptide: KA[dL]NRQLGVAA-NH2
# modifications: N-terminus assumed
# SMILES: CC(C)C[C@H](NC(=O)[C@H](CCC(N)=O)NC(=O)[C@H](CCCNC(=N)N)NC(=O)[C@H](CC(N)=O)NC(=O)[C@@H](CC(C)C)NC(=O)[C@H](C)NC(=O)[C@@H](N)CCCCN)C(=O)NCC(=O)N[C@H](C(=O)N[C@@H](C)C(=O)N[C@@H](C)C(N)=O)C(C)C
# B21: KALNdRQLGVAA (peptide)
# peptide: KALN[dR]QLGVAA-NH2
# modifications: N-terminus assumed
# SMILES: CC(C)C[C@H](NC(=O)[C@H](C)NC(=O)[C@@H](N)CCCCN)C(=O)N[C@@H](CC(N)=O)C(=O)N[C@H](CCCNC(=N)N)C(=O)N[C@@H](CCC(N)=O)C(=O)N[C@@H](CC(C)C)C(=O)NCC(=O)N[C@H](C(=O)N[C@@H](C)C(=O)N[C@@H](C)C(N)=O)C(C)C
# B22: WLRRIKA (non-functional) (peptide)
# peptide: WLRRIKA
# B23: Alanine-substitution peptide printed as KALNRQLGVAA (Table 1, fourth alanine row) (peptide)
# peptide: KALNRQLGVAA
# B24: KALdNRQLGVAA (peptide)
# peptide: KAL[dN]RQLGVAA-NH2
# modifications: N-terminus assumed
# SMILES: CC(C)C[C@H](NC(=O)[C@H](C)NC(=O)[C@@H](N)CCCCN)C(=O)N[C@H](CC(N)=O)C(=O)N[C@@H](CCCNC(=N)N)C(=O)N[C@@H](CCC(N)=O)C(=O)N[C@@H](CC(C)C)C(=O)NCC(=O)N[C@H](C(=O)N[C@@H](C)C(=O)N[C@@H](C)C(N)=O)C(C)C
# How the values were obtained:
# Assay in all cases: cell-based or functional assay
# [1] = target: T1, mitogen-activated protein kinase-activated protein kinase 2 (human MK2) (human, UniProt P49137 46-400, limits assumed)
# T1 sequence (P49137 46-400 limits assumed): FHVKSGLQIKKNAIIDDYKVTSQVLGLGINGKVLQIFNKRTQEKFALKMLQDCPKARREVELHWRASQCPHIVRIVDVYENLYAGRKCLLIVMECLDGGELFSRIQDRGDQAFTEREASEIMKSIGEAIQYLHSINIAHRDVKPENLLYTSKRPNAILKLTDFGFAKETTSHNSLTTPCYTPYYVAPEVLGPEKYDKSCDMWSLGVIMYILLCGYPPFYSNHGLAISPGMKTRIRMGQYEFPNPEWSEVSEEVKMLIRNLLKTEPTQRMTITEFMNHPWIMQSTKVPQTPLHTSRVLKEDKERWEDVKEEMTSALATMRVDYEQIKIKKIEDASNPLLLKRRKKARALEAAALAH
# [2] = target: MK3 (mitogen-activated protein kinase-activated protein kinase 3) (human, UniProt Q16644 1-382, limits assumed)
# Chain of MK3 (mitogen-activated protein kinase-activated protein kinase 3) (Q16644 whole entry): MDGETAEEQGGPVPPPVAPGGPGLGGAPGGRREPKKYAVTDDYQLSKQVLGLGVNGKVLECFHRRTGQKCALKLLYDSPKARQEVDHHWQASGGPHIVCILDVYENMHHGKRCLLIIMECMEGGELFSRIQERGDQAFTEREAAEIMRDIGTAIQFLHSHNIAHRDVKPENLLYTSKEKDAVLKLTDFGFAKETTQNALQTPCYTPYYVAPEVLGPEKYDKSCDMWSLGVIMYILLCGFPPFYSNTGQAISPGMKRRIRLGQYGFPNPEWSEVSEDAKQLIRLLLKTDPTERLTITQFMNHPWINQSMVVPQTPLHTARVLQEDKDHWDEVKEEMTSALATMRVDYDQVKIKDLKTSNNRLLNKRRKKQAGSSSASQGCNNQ
# [3] = target: ROCK-I (h) (Rho-associated serine/threonine kinase) (human, UniProt Q13464 17-535, limits assumed)
# Chain of ROCK-I (h) (Rho-associated serine/threonine kinase) (Q13464 17-535 limits assumed): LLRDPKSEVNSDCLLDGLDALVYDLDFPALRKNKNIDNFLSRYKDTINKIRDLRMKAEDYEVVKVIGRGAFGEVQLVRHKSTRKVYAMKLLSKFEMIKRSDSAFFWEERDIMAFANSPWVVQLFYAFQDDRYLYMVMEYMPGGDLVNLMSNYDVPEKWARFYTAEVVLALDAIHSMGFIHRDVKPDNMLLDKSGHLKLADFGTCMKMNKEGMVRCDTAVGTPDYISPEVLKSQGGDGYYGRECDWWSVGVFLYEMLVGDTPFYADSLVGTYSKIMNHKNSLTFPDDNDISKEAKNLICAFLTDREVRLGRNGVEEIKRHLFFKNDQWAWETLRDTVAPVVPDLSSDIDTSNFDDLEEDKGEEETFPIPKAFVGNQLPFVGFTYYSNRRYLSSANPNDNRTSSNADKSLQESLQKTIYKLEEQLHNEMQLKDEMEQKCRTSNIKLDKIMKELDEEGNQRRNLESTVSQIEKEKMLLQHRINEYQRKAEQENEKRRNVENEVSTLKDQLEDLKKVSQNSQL
# [4] = target: SAPK2a (h) (p38α) (human, UniProt Q16539 1-360)
# Chain of SAPK2a (h) (p38α) (Q16539 whole entry): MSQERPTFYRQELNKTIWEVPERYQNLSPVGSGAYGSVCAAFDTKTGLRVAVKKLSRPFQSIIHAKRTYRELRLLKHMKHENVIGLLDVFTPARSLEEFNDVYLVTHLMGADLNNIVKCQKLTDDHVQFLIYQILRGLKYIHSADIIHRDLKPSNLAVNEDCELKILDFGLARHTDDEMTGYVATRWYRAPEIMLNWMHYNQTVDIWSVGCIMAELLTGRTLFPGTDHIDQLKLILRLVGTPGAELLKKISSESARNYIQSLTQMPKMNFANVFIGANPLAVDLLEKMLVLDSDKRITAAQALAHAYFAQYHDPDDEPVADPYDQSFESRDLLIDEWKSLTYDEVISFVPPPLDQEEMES
# [5] = target: CaMKI (h) (calcium/calmodulin-dependent protein kinase) (human, UniProt Q14012 1-370, limits assumed)
# Chain of CaMKI (h) (calcium/calmodulin-dependent protein kinase) (Q14012 whole entry): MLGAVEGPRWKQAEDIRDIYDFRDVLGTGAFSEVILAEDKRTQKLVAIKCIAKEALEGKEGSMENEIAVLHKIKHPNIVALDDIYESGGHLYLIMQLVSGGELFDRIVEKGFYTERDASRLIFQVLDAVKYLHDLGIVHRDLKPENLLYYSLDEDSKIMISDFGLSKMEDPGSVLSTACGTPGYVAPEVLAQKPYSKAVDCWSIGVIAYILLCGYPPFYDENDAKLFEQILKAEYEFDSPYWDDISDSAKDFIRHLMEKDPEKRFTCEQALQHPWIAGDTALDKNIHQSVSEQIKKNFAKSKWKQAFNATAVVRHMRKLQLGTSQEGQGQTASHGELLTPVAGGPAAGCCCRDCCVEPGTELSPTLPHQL
# [6] = target: PKBβ (h) (protein kinase B) (human, UniProt P31751 120-481, limits assumed)
# Chain of PKBβ (h) (protein kinase B) (P31751 120-481 limits assumed): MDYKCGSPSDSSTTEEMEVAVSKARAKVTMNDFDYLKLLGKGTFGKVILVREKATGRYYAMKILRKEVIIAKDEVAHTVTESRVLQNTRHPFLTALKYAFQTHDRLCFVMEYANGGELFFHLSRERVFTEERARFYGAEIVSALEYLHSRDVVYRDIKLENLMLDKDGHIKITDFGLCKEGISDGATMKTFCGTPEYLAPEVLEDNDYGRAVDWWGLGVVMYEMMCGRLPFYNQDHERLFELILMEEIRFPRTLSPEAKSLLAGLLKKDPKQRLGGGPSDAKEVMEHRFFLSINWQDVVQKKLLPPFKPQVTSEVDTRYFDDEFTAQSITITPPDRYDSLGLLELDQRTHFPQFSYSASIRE
# [7] = target: T2, PRAK (h) (p38 regulated/activated protein kinase) (human, UniProt Q8IW41 1-473, limits assumed)
# T2 sequence (looked up): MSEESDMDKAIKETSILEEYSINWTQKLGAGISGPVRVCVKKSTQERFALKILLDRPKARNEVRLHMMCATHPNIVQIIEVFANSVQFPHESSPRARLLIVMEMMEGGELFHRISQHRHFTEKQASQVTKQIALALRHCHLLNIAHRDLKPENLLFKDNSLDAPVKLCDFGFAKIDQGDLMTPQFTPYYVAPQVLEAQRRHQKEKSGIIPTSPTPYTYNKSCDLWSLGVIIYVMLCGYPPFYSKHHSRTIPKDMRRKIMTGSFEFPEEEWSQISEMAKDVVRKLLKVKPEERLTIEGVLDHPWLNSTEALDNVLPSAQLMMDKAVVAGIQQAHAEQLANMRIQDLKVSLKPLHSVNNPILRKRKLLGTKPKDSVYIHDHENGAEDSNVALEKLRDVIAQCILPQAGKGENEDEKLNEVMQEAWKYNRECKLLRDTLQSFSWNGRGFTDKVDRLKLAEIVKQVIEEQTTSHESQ
# [8] = target: MLCK (h) (myosin light chain kinase) (human)
# [9] = target: T3, IRAK4 (h) (IL-1 receptor (IL-1R)-associated kinase) (human, UniProt Q9NWZ3 1-460, limits assumed)
# T3 sequence (looked up): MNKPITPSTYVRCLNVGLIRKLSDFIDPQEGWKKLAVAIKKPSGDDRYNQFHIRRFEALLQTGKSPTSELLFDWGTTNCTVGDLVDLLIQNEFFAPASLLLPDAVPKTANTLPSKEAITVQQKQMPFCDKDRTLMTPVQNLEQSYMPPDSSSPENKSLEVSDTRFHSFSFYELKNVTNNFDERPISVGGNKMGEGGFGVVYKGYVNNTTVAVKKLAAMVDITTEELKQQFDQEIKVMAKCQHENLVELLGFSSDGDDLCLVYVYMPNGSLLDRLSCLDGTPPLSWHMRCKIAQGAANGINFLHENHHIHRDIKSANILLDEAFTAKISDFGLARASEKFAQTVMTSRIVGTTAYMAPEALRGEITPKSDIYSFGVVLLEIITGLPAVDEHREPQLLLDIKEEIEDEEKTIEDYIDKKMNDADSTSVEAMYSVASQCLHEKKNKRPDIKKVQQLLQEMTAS
# [10] = target: T1, mitogen-activated protein …; remark: listed apart in the source
binder,measurement,setting,value
B1,"Kinase Activity, peptide at 300 µM, radiometric assay",[1],10%
same,"Kinase Activity, peptide at 300 µM, radiometric assay",[2],19%
same,"Kinase Activity, peptide at 300 µM, radiometric assay",[3],95%
same,"Kinase Activity, peptide at 300 µM, radiometric assay",[4],100%
same,"Kinase Activity, peptide at 300 µM, radiometric assay",[5],8%
same,"Kinase Activity, peptide at 300 µM, radiometric assay",[6],96%
same,"Kinase Activity, peptide at 300 µM, radiometric assay",[7],81%
same,"Kinase Activity, peptide at 300 µM, radiometric assay",[8],66%
same,"Kinase Activity, peptide at 300 µM, radiometric assay",[9],68%
B2,"% change in MK2 reaction velocity vs unsubstituted …, peptide at 100 µM",[10],176%
B3,"% change in MK2 reaction velocity vs unsubstituted …, peptide at 100 µM",[10],-9%
B4,"% change in MK2 reaction velocity vs unsubstituted …, peptide at 100 µM",[10],273%
B5,"% change in MK2 reaction velocity vs unsubstituted …, peptide at 100 µM",[10],160%
B6,"Kinase Activity, peptide at 100 µM, radiometric assay",[1],8%
same,"Kinase Activity, peptide at 100 µM, radiometric assay",[2],17%
same,"Kinase Activity, peptide at 100 µM, radiometric assay",[3],29%
same,"Kinase Activity, peptide at 100 µM, radiometric assay",[4],59%
same,"Kinase Activity, peptide at 100 µM, radiometric assay",[5],0%
same,"Kinase Activity, peptide at 100 µM, radiometric assay",[6],28%
same,"Kinase Activity, peptide at 100 µM, radiometric assay",[7],148%
same,"Kinase Activity, peptide at 100 µM, radiometric assay",[8],2%
same,"Kinase Activity, peptide at 100 µM, radiometric assay",[9],16%
B7,"% change in MK2 reaction velocity vs unsubstituted …, peptide at 100 µM",[10],0%
B8,"% change in MK2 reaction velocity vs unsubstituted …, peptide at 100 µM",[10],44%
B9,"% change in MK2 reaction velocity vs unsubstituted …, peptide at 100 µM",[10],-61%
B10,"% change in MK2 reaction velocity vs unsubstituted …, peptide at 100 µM",[10],52%
B11,"% change in MK2 reaction velocity vs unsubstituted …, peptide at 100 µM",[10],-132%
B12,"% change in MK2 reaction velocity vs unsubstituted …, peptide at 100 µM",[10],18%
B13,"% change in MK2 reaction velocity vs unsubstituted …, peptide at 100 µM",[10],257%
B14,"Kinase Activity, peptide at 100 µM, radiometric assay",[1],5%
same,"Kinase Activity, peptide at 100 µM, radiometric assay",[2],10%
same,"Kinase Activity, peptide at 100 µM, radiometric assay",[3],25%
same,"Kinase Activity, peptide at 100 µM, radiometric assay",[4],30%
same,"Kinase Activity, peptide at 100 µM, radiometric assay",[5],0%
same,"Kinase Activity, peptide at 100 µM, radiometric assay",[6],16%
same,"Kinase Activity, peptide at 100 µM, radiometric assay",[7],131%
same,"Kinase Activity, peptide at 100 µM, radiometric assay",[8],1%
same,"Kinase Activity, peptide at 100 µM, radiometric assay",[9],13%
B15,"% change in MK2 reaction velocity vs unsubstituted …, peptide at 100 µM",[10],-83%
B16,"Kinase Activity, peptide at 30 µM, radiometric assay",[1],2%
same,"Kinase Activity, peptide at 30 µM, radiometric assay",[2],16%
same,"Kinase Activity, peptide at 30 µM, radiometric assay",[3],0%
same,"Kinase Activity, peptide at 30 µM, radiometric assay",[4],61%
same,"Kinase Activity, peptide at 30 µM, radiometric assay",[5],9%
same,"Kinase Activity, peptide at 30 µM, radiometric assay",[6],18%
same,"Kinase Activity, peptide at 30 µM, radiometric assay",[7],67%
same,"Kinase Activity, peptide at 30 µM, radiometric assay",[8],4%
same,"Kinase Activity, peptide at 30 µM, radiometric assay",[9],12%
B17,"% change in MK2 reaction velocity vs unsubstituted …, peptide at 100 µM",[10],258%
B18,"% change in MK2 reaction velocity vs unsubstituted …, peptide at 100 µM",[10],-28%
B19,"Kinase Activity, peptide at 300 µM, radiometric assay",[1],-7%
same,"Kinase Activity, peptide at 300 µM, radiometric assay",[2],5%
same,"Kinase Activity, peptide at 300 µM, radiometric assay",[3],27%
same,"Kinase Activity, peptide at 300 µM, radiometric assay",[4],66%
same,"Kinase Activity, peptide at 300 µM, radiometric assay",[5],2%
same,"Kinase Activity, peptide at 300 µM, radiometric assay",[6],17%
same,"Kinase Activity, peptide at 300 µM, radiometric assay",[7],86%
same,"Kinase Activity, peptide at 300 µM, radiometric assay",[8],9%
same,"Kinase Activity, peptide at 300 µM, radiometric assay",[9],23%
B20,"% change in MK2 reaction velocity vs unsubstituted …, peptide at 100 µM",[10],46%
B21,"% change in MK2 reaction velocity vs unsubstituted …, peptide at 100 µM",[10],206%
B22,"% change in MK2 reaction velocity vs unsubstituted …, peptide at 100 µM",[10],4310%
B23,"% change in MK2 reaction velocity vs unsubstituted …, peptide at 100 µM",[10],258%
B24,"% change in MK2 reaction velocity vs unsubstituted …, peptide at 100 µM",[10],-5%
